Four molecules from PMC12025923 (Cells, 2025) can be followed below.

The target of test [1] is T1, wild-type 14-3-3γ-nLuc (His6-14-3-3γ-nLuc) (human, UniProt P61981 2-247).
T1 construct: Size ~47.5 kDa as printed; The Nluc forward primer encodes a short linker (GGGGTRS, read from the primer) between 14-3-3γ and nLuc; also called wt 14-3-3γ-nLuc; 14-3-3γ-nLuc wt; source: E. coli Rosetta(DE3)pLysS, purified (Ni-NTA); not shown: nLuc (nanoluciferase), C-terminal, kept
T1 sequence (looked up): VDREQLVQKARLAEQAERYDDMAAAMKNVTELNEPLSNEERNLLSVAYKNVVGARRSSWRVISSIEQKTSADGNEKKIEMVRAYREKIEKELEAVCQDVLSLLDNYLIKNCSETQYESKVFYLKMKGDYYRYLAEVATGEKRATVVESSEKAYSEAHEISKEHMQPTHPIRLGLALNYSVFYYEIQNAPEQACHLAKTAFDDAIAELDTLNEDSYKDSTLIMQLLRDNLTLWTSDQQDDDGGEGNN
Nature of the test: FRET or BRET; in vitro BRET competition: wt 14-3-3γ-nLuc and FITC-phosphopeptide with increasing doses of R18 peptide (Figure S2D). Conditions: both partners purified. (In general: Bioluminescence resonance energy transfer reports proximity on the nanometre scale.)

For test [2], the target named is T2, 14-3-3γ-R57C-nLuc (human, UniProt P61981 2-247, R57C).
T2 construct: 14-3-3γ (YWHAG), human, pathogenic patient variant R57C, site-directed mutant of the 14-3-3γ-nLuc plasmid; limits as m8; As m8 with R57C; source: E. coli Rosetta(DE3)pLysS, purified (Ni-NTA); not shown: nLuc (nanoluciferase), C-terminal, kept
T2 sequence (looked up): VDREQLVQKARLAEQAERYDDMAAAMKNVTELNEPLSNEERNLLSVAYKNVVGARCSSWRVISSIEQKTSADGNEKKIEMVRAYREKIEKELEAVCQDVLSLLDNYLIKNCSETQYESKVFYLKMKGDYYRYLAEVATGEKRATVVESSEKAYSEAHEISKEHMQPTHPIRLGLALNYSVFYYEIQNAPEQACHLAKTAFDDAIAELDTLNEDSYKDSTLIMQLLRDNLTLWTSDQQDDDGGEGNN
Nature of the test: FRET or BRET; in vitro BRET: 1 nM recombinant nLuc or 14-3-3γ-nLuc with increasing FITC-phosphopeptide in 20 mM Tris-HCl, 150 mM NaCl, 1 mg/mL BSA, 0.1% Tween 20; 250 nM furimazine; net BRET after subtraction of nLuc background; Kd from y = Bmax*x/(Kd + x). The following applies: both partners purified.

Test [3] addresses T1, wild-type 14-3-3γ-nLuc …. Described as above. The following applies: both partners purified.
The next test addresses T3, 14-3-3γ-R57G-nLuc (human, UniProt P61981 2-247, R57G).
T3 construct: 14-3-3γ (YWHAG), human, pathogenic patient variant R57G, site-directed mutant of the 14-3-3γ-nLuc plasmid; limits as m8; As m8 with R57G; source: E. coli Rosetta(DE3)pLysS, purified (Ni-NTA); not shown: nLuc (nanoluciferase), C-terminal, kept
T3 sequence (looked up): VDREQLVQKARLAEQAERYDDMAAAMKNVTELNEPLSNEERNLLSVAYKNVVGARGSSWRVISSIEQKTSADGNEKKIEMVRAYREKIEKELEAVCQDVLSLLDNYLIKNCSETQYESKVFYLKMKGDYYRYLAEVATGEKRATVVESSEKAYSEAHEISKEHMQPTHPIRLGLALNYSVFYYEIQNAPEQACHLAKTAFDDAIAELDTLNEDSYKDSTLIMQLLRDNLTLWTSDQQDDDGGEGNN
The test is described as above. The following applies: both partners purified.

In test [4] the target is T4, wild-type 14-3-3γ-nLuc (His6-14-3-3γ-nLuc) (human, UniProt P61981 2-247).
T4 chain: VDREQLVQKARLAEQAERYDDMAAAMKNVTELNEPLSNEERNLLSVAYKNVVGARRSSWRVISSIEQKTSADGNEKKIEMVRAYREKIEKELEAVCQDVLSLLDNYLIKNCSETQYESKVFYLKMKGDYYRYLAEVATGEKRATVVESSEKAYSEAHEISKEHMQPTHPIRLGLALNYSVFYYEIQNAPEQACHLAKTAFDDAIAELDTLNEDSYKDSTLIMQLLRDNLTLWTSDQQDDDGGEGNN
Nature of the test: degarelix 1 uM.

Test [5] deals with T5, 14-3-3γ-R57C-nLuc (human, UniProt P61981 2-247, R57C).
T5 sequence: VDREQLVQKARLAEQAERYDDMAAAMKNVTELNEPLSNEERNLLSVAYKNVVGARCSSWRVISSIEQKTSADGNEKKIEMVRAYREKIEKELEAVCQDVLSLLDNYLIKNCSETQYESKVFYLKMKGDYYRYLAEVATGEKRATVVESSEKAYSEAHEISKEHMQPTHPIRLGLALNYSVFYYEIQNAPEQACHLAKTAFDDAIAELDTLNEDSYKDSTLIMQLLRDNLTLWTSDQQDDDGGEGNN
Nature of the test: degarelix 1 uM; apparent, Bmax set to wild-type.

For test [6], the target named is T5, 14-3-3γ-R57C-nLuc. Nature of the test: nafamostat 25 uM; apparent, Bmax set to wild-type.
For test [7], the target named is T4, wild-type 14-3-3γ-nLuc …. Nature of the test: nafamostat 25 uM.
For test [8], the target named is T5, 14-3-3γ-R57C-nLuc. Nature of the test: DMSO; apparent, Bmax set to wild-type.

Primed or numbered codes have the meaning given here. Where no end group is shown, it is not given here. [ ]: non-standard residue; d: D form. FITC′ = fluorescein isothiocyanate label at the N-terminus; pS = N[C@@H](COP(=O)(O)O)C(=O)O

B1: R18 peptide (peptide)
peptide: PHCVPRDLSWLDLEANMCLP
notes: Not labelled with FITC (only the phosphopeptides were); source: synthetic peptide (AbClonal)
For B1, the binding result in test [1] is “binds”.

B2: FITC-pSLP76 (peptide)
peptide: {FITC′}-FPQSA[pS]LPPYFS
notes: SLP76 (Lymphocyte cytosolic protein 2/LCP2), human; source: synthetic peptide (AbClonal)
Regarding B2, the “percent of the phosphopeptide binding reached at the highest peptide concentration” value with 14-3-3γ-R57C-nLuc [2] and in the test with 14-3-3γ-R57G-nLuc was roughly 30% in each case. The Kd in test [3] was determined as 47.5 nM.

B3: FITC-pTH (peptide)
peptide: {FITC′}-MPTPDATTPQAKGFRRAV[pS]ELDAKQAEAIMSPRFIGRRQSLIE
notes: also called phosphopeptide derived from tyrosine hydroxylase (TH); source: synthetic peptide (AbClonal)
In the case of B3, the Kd in test [4] was determined as 36.2 nM; with 14-3-3γ-R57C-nLuc [5], 22200 nM; with 14-3-3γ-R57C-nLuc [6], 5280 nM; in [3] it was 84.3 nM; in [7], 75 nM.

B4: FITC-ppLRRK2 (peptide)
peptide: {FITC′}-QRHSN[pS]LGPIFDGSGGGSGIKARAS[pS]SPVILVGTHLD
notes: leucine-rich repeat kinase 2 (LRRK2), human; also called FITC-LRRK2; source: synthetic peptide (AbClonal)
Turning to B4, the Kd in test [4] was determined as 0.89 nM; with 14-3-3γ-R57C-nLuc [5] it was 25.2 nM; in the test with 14-3-3γ-R57C-nLuc [8] it was 431 nM; with 14-3-3γ-R57C-nLuc [6], 44.1 nM; in [3], 0.74 nM; in [7], 0.8 nM. Further, the “percent of the phosphopeptide binding reached at the highest peptide concentration” value with 14-3-3γ-R57C-nLuc [2] and in the test with 14-3-3γ-R57G-nLuc was roughly 30% throughout.
